The values below are quoted from earlier work in PMC4437577.

The data set concerns the target PR-B (Homo sapiens) (UniProt P06401). The data set can be described thus: analytical ultracentrifugation.

Turning to PR-B (from UniProt P06401), the Kd is 8.8 µM.

A word on the Kd: it is the free concentration of one partner at which half of the binding sites on the other are occupied at equilibrium, for simple one-to-one binding.
